Measured values published in patent publication US20170296680A1 (NATIONAL RESEARCH COUNCIL OF CANADA, published 2017).
“And” between values parts separate entries of the source, which are not always exact repeats. Equal values may be shown once.

Key:
[1] = molecular target: T1, recombinant human tau protein, isoform 2N4R (Tau-441) (human, UniProt P10636-8 1-441); experiment: SPR, sdAb stored at 4 C, 55 days after IMAC purification
T1 construct: Bought

[2] = molecular target: T1, recombinant human tau protein, isoform …; experiment: SPR, sdAb stored at 4 C, 30 days after IMAC purification
[3] = molecular target: T1, recombinant human tau protein, isoform …; experiment: SPR, sdAb stored at 4 C, 34 days after IMAC purification
[4] = molecular target: T1, recombinant human tau protein, isoform …; experiment: SPR (Biacore T200), sdAb over immobilized antigen, steady state fit
Method: (§1) Surface Plasmon Resonance (SPR): All binding assays for Tau15 and Tau81 were carried out at 25° C. on a Biacore™ T200 instrument (GE Healthcare). […] The running buffer for all SPR experiments was HBS-EP+ (10 mM HEPES, 150 mM NaCl, 3 mM EDTA, pH 7.4, 0.05% surfactant P20; GE Healthcare). The sdAb were injected at 20 μL/min for 3 min with a dissociation time of 7 min for the test run, and at 20 μL/min for 2 min with a dissociation time of 6 min for the steady state analysis. Data was analyzed using the Biacore T200 evaluations software Version 2.0.
(§2) The KD value for the interaction between Tau15 and Tau81 sdAb and immobilized tau were derived by fitting the data to a steady state model and are reported in Table 1. […] Size exclusion chromatograms (FIG. 4) confirmed that Tau15 and Tau81 were monomeric.

[5] = molecular target: hyperphosphorylated tau (tau-p; University of Victoria); experiment: as above
Method: as §1, §2

[6] = molecular target: T1, recombinant human tau protein, isoform …; experiment: SPR, sdAb stored at 4 C, 42 days after IMAC purification
[7] = molecular target: T1, recombinant human tau protein, isoform …; experiment: SPR (Biacore 3000), over immobilized Tau-441, duplicate injection
Method: (§3) Surface Plasmon Resonance (SPR): All binding assays for DH-Tau15 and Fc-Tau15 were carried out at 25° C. on a Biacore™ 3000 instrument (GE Healthcare). […] The running buffer for all SPR experiments was HBS-EP+ (10 mM HEPES, 150 mM NaCl, 3 mM EDTA, pH 7.4, 0.05% surfactant P20; GE Healthcare). The antibodies were injected at 20 μL/min for 2 min with a dissociation time of 30 min. Data was analyzed using the Biacore 3000 BIAevaluations software Version 4.1.

[8] = molecular target: T1, recombinant human tau protein, isoform …; experiment: SPR (Biacore 3000), over immobilized Tau-441
Method: as §3

T1 sequence (P10636 other isoform, or with tags, fused parts or gaps limits assumed): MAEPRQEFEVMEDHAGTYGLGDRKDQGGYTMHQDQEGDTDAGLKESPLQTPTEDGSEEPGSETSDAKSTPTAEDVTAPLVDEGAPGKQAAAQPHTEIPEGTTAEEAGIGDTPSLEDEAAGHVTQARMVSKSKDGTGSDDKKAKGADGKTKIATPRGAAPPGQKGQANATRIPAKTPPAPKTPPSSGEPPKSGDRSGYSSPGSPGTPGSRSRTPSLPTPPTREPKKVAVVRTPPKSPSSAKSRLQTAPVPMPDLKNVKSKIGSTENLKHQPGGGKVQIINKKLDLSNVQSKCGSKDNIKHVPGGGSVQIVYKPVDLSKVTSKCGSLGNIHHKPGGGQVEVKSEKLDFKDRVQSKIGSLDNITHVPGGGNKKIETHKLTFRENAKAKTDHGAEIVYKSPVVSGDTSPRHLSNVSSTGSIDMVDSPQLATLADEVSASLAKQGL

B1: Tau15 (VHH)
VHH: QVKLEESGGGLVQPGGSLRLSCAASGFTFSNFAMTWVRQSPGKGLEWVSAIDNDGGRTSYSDSVKGRFTISRDNAKNTLYLQMNSLKPEDTAMYYCAAMNLATRKWELWGQGTQVTVSS
notes: Llama single-domain antibody with VH (not VHH) hallmark residues in FR2; monomeric by SEC; expressed in E. coli periplasm; also called 3Tau15; sdAb Tau15; not shown: C-terminal cmyc and His6 tags (pSJF2H vector); OmpA leader removed on secretion
Kd [1]: 590 nM
Kd [2]: 605 nM
Kd [3]: 820 nM
Kd [4]: 699 nM
Kd [5]: 622 nM
Kd [6]: 534 nM
koff [7]: 0.0632 s⁻¹ and 0.0667 s⁻¹

B2: Tau81 (VHH)
VHH: QVQLVESGGGLVQPGGSLKLSCAASGFTGDHYAMSWVRQAPGKGLEWVSTIYSYSPNTYYVDSVKDRFTISLDNAKNTLYLQMNSLKPEDTAVYYCAADLEVAEYYAYWGQGTQVTVSS
notes: Llama single-domain antibody with VH hallmark residues in FR2; mainly monomeric by SEC; also called 7Tau81; sdAb Tau81; not shown: C-terminal cmyc and His6 tags (pSJF2H vector); OmpA leader removed on secretion
Kd [1]: 507 nM
Kd [2]: 105 nM
Kd [3]: 175 nM
Kd [4]: 820 nM
Kd [5]: 745 nM
Kd [6]: 660 nM

B3: dimeric human hinge Tau15 (DH-Tau15) (VHH)
VHH: QVKLEESGGGLVQPGGSLRLSCAASGFTFSNFAMTWVRQSPGKGLEWVSAIDNDGGRTSYSDSVKGRFTISRDNAKNTLYLQMNSLKPEDTAMYYCAAMNLATRKWELWGQGTQVTVSS
notes: dimer through the hinge; also called dimeric hinge Tau15; hinge dimer
fold slower off rate than monomeric Tau15 [8]: ~1000 fold
koff [7]: 4.27e-05 s⁻¹ and 3.45e-05 s⁻¹
